Values quoted from earlier work in paper PMC6667839.

Molecular target: IL-33 112-270 (Homo sapiens) (UniProt O95760)
Chain of UniProt O95760 (O95760 112-270): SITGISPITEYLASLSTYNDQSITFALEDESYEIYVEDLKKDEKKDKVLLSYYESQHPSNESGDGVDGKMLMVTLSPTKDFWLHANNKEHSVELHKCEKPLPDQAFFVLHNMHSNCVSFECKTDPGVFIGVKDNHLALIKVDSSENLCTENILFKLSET

Kd: 4 nM
Substance: sST2 (from UniProt Q01638)
